We go through three molecules from US20230242902A1, “A HIGHLY ERROR-PRONE […] R[…] FOR TARGETED CONTINUOUS EVOLUTION IN VIVO” (The Regents of the University of California, priority 2017, published 2023).

In the experiment the test system is p1-encoded leu2*. Kind of experiment: p1 leu2* fluctuation tests in AR-Y304 (p1 mutation rate reporter strain, mutual orthogonality). It counts as cell-based, S. cerevisiae. The text has this: Strains for testing mutual orthogonality were generated by transforming a panel of CEN6/ARS4 vectors encoding TP-DNAP1 or TP-DNAP2 variants into two base strains, AR-Y304 and GA-Y021. AR-Y304 (Ravikumar et al., 2014, Nature Chemical Biology, 10:175-177) contains recombinant p1 encoding mKate2, URA3 and leu2* without disturbing the native TP-DNAP1 ORF. Similarly, GA-Y021 encodes recombinant p2 that replaces ORF1 with mKate2, URA3 and leu2* without disturbing the native TP-DNAP2 ORF.
To precisely measure p1 and p2 per-base substitution mutation rates, several modifications were made to the small-scale protocol. First, 36 replicates were performed for reconfirmation of candidate TP-DNAP2 mutators, and 48 replicates for genomic and mutual orthogonality experiments. Titers were also determined for each strain after spot plating by pooling the residual volume from 4 replicates and plating dilutions on YPD. The expected number of LEU2 functional mutants (m) was determined by the Ma-Sandri-Sarkar maximum likelihood estimator (as calculated by the FALCOR tool and corrected for partial plating (Foster, 2006, Methods Enzymol, 409:195-213; Sarkar et al., 1992, Genetica, 85:173-179; Hall et al., 2009, Bioinformatics, 25:1564-1565). The mean mKate2 fluorescence was determined from 50,000 event counts on Attune™ NxT Flow Cytometer and converted to p2 copy number by using a calibration curve. To determine per-base substitution rates, the corrected m was normalized to the average cell titer, the p2 copy number, and the target size for functional leu2* reversion (2.33 bp). 95% confidence intervals were similarly scaled.
To test whether the replication mechanisms of p1 and p2 are mutually orthogonal in vivo, p1 and p2 mutation rates were measured in the presence of a panel of TP-DNAP1 and TP-DNAP2 variants with varying mutation rates. Changes in p1 or p2 mutation rate induced by TP-DNAP variants would therefore signal a degree of cross-replication between TP-DNAP1/p1 and TP-DNAP2/p2, if any. A panel of six polymerases was introduced on CEN6/ARS4 vectors into two separate base strains, AR-Y304 (p1 mutation rate reporter strain) and GA-Y021 (p2 mutation rate reporter strain), encoding mKate2, URA3, and leu2* on either p1 or p2, respectively. Included in this panel were TP-DNAP1^WT and two error-prone TP-DNAP1 variants found in previous screens: TP-DNAP1^1777K, L900S and TP-DNAP1^L477V, L640Y, I777K, W814N. Also included were TP-DNAP2^WT and the error-prone TP-DNAP2^S370Q and TP-DNAP2^Y424Q variants found in this work. In AR-Y304 and GA-Y021, both p1 and p2 still encode their native wt TP-DNAP's. Any contribution to replication by a third TP-DNAP encoded in trans is monitored by detecting changes in linear plasmid mutation rate. Importantly, these experiments afford each DNAP an opportunity to replicate its native plasmid and lose its attached TP, becoming “spent” and perhaps more likely to replicate its noncognate linear plasmid through DNAP exchange (Klassen and Meinhardt, 2007, Linear Protein-Primed Replicating Plasmids in Eukaryotic Microbes, in Microbial Linear Plasmids, pp 1 87-226. Springer, Berlin, Heidelberg). The presence of TP-DNAP1^WT or TP-DNAP2^WT in trans had no effect on their noncognate linear plasmids' mutation rate. […] Likewise, p1 mutation rate was unaltered in the presence of mutagenic TP-DNAP2^S370Q and TP-DNAP2^Y424Q, which increased p2 mutation rate by 29- and 16-fold, respectively (FIG. 9). Thus, TP-DNAP1 replicates p1 with at least 870-fold specificity over p2, while TP-DNAP2 targets p2 with at least 29-fold specificity over p1. The level of mutual orthogonality measured here is limited by the error-rates of DNAPs used, especially that of TP-DNAP2 variants.

Positions count from the first letter of the chain named. In names and notes the source's numbering stands.

B1: WT: wild-type Kluyveromyces lactis DNA polymerase TP-DNAP2, SEQ ID NO:13 (protein, listed as Kluyveromyces lactis)
chain: MNDELAFLNSQIDDYSDDIEFLRTEVFRINRYSKSIYSLMKNSSKEAIKETIEFNKYGQEIHSKIKEKEISLIEAIKLMEKKYKYLRSLNKTKDKSKKKKIHTKDIETLKTIYKTKADFDIRNFKNAETFTYENYSLLIPSEKELIDLIPEIEEDYSYYFYVSLTITGPTIFGGVTRKVPIIDTYGDINKDFYNKIKENITKVLDRVPFYEEKESEIICKKVLITLTVNKWESIDKWYKNVKSKSKKFKDFTLFLASDTSKNCVQQCVEYLGGKWNTNYSLEKMIPQQKIVTYIPLLMDIQYVQSMEDLISDFDEPNTDCKNIARLLKWNGHMGVITKIDKDVKINRIQRKRIIDVENKEVKEVFFDIESFSDETKHQIPYLICWSYLGELYYRTGKNCIKEFVEEILSYNVDIILYAWYGSGYDYQHVLPYMKSKCIKDKYIIKNNMITYGELYYENAIIYLKDPYLFILTSLDKASKAFNVINKGEFPHSIIHSWEDLNKILPNWVKIQKRMIEYKDDNKLNIYYKNIEIFENDRNYNTILENAIEYCKVDVLAMEKVWIKFKKLLEKNLNITVSVKTFTLSQLSMKIMESKLPKYVKLYVPTLEEYSKIRNAIYGGRVISKNGIYEENIVYADVVSLYPSAMKLLKHSYGKPKLVDYIDFEKHGIYRVTLLNKHDQEPKNYLNFVPRRINRKLTWEWFKIHEGWYHTYDLIIAKSEGFDIYCHEGFEYPEKDYIFNDFIDTLYSMKETHTACSCEEQPCPIRMVAKIALNGGGYGKFVQKPIDKEIYIVKRDVVAGECDKLQENENGEICIGKRLVKRPLFYNLDSENYDKMIIEKEDEPIYSTQCGISILSASRYRLYKLCKQFENIDIIYSDTDSIFVKQKSVDWELFKSKCGSELGQLDSTIDDTKNAIISKMYIGGAKMYAFEYLNNKNKLITKLHCKGVPNYMLSLNQFKYLMESPDNTIAYKFEIIRRKLVNVITKDLIKDIKQT
Turning to B1, the “change in p1 mutation rate by TP-DNAP2” value (AR-Y304, noncognate polymerase in trans) was “no effect”.

B2: TP-DNAP1-4-2: TP-DNAP1 variant (L477V, L640Y, I777K, W814N), encoded by SEQ ID NO:11 (protein, listed as Kluyveromyces lactis)
chain: MDYKDKALNDLRNVYADFDSLPLDFRQILIKDRATLLQKEDVEKKILERQEDAKKYAEYLKQSEIPERISLPNIKRHKGVSISFEETSEDMVLEPRPFIFDGLNIRCFRRETIFSLKNKILNMVKESSSFKNVSRQSVSFMYFKIFNKGKVIASTKSVNIYEDKIDERLEDLCNNFDDVLKKIIDVTYGYESLFVSETYSYVIFYAKSIYFPQPRCVNNWGNNIPNILTFDSFKLFTANKNNVSCIKQCSRFLWQKDFNTLEEMIEYKNGNICIVTPQLHINDVRDIKSFNDIRLYSESPIKTFSVIDNTITYLFYFKEHLGVIFNITKSRHDRRVTKFSPLSKFSDVKNITVCFDIESYFDPEKESNQVNIPFICCASIIYNKVIGNIVDFEGRDCVAQMIEYVVDICGELNISSVELIAHNGGGYDFHYILSSMYNPAAIKNILIRNNSFISFNFAHDGVKFSVKDSYSFLLCSVANASKAFLNEETFKKTDFPHHDLKTADDLYKVYKEWSSVNTEINHVVEKEKLLITSEHIVNFTKNDKSKTLIEWSKDYCRNDVLVLSKVWLEFKNAVEDIFNCELVDQTMTLAGLSYKLFQANMPFDVELRHPNKEDYFNMREALIGGRCISVNGIYKDVLCYDVKSLYPASMAFYDQPYGSFKRVSSRPKDELGIYYVRVTPNRNNKSNFFPIRSHNKITYNNFEESTYIAWYTNVDIDIGLSEGHNIEYIPFDSYGNIGYSWSKKGKIFEKYIKDVLYKLKIKYEKQNNKVKRNVIKKIMNSLWGKFAQKWVNFEYFIKSEDDIDFESEEAYKINDTDFMLIKKIKESTYSSKPIQNGVFTLSWARYHMKSIWDAGAKEGAECIYSDTDSIFVHKEHFKKNAKFMLNGLKVPIIGSEVGQLELECEFDKLLCAGKKQYMGFYTYFQDGKPCIKEKKRFKGIPSNYIIPELYAHLLSGADKEAKIQFLKFRREWGSVKGYIENKTVKAT
On to B2, for which the “fold increase of p1 mutation rate” value (AR-Y304, polymerase in trans) amounted to 870 fold.

B3: w.t.: wild-type Kluyveromyces lactis DNA polymerase TP-DNAP1, SEQ ID NO:1 (protein, listed as Kluyveromyces lactis)
chain: B2 chain with V477L, Y640L, K777I, N814W
Take B3: the “specificity for p1 over p2” value was “at least 870 fold”.
